The results in this text go back to patent US20100162418A1 (Kyowa Kirin, published 2010).

First the molecules themselves.
B1: MSPS, purified recombinant human Protein S obtained from FUT8 knockout CHO/DG44 cells (other)
chain: ANSLLEETKQGNLERECIEELCNKEEAREVFENDPETDYFYPKYLVCLRSFQTGLFTAARQSTNAYPDLRSCVNAIPDQCSPLPCNEDGYMSCKDGKASFTCTCKPGWQGEKCEFDINECKDPSNINGGCSQICDNTPGSYHCSCKNGFVMLSNKKDCKDVDECSLKPSICGTAVCKNIPGDFECECPEGYRYNLKSKSCEDIDECSENMCAQLCVNYPGGYTCYCDGKKGFKLAQDQKSCEVVSVCLPLNLDTKYELLYLAEQFAGVVLYLKFRLPEISRFSAEFDFRTYDSEGVILYAESIDHSAWLLIALRGGKIEVQLKNEHTSKITTGGDVINNGLWNMVSVEELEHSISIKIAKEAVMDINKPGPLFKPENGLLETKVYFAGFPRKVESELIKPINPRLDGCIRSWNLMKQGASGIKEIIQEKQNKHCLVTVEKGSYYPGSGIAQFHIDYNNVSSAEGWHVNVTLNIRPSTGTGVMLALVSGNNTVPFAVSLVDSTSEKSQDILLSVENTVIYRIQALSLCSDQQSHLEFRVNRNNLELSTPLKIETISHEDLQRQLAVLDKAMKAKVATYLGGLPDVPFSATPVNAFYNGCMEVNINGVQLDLDEAISKHNDIRAHSCPSVWKKTKNS
modifications: gamma-carboxylated glutamic acid (Gla) in the Gla domain; complex type N-glycoside-linked sugar chains without fucose (fucose not detected)
notes: It differs from KCPS only in glycosylation (no core fucose); also called fucose-free recombinant Protein S

In assay [1] the target is MSPS, purified recombinant human Protein S obtained from FUT8 knockout CHO/DG44 cells (human) (UniProt P07225). The assay is described as follows: SPR (Biacore T100), MSPS immobilised on CM5, C-17 as analyte.
Assay [2] deals with KCPS, purified recombinant human Protein S obtained from CHO/DG44 cells (human) (UniProt P07225). The assay is described as follows: SPR (Biacore T100), KCPS immobilised on CM5, C-17 as analyte.
The target in assay [3] is human plasma-derived Protein S (manufactured by Calbiochem) (human) (UniProt P07225). The assay is described as follows: SPR (Biacore T100), Protein S immobilised on CM5, C-17 as analyte.
For assay [4], the target named is T1, human plasma-derived complement C4 binding protein (C4BP; manufactured by BioMed) (human, UniProt P04003 49-597; P20851 18-252).
T1 construct: mature; Bought plasma protein; also called Human C4BP
T1 sequence (looked up) 1: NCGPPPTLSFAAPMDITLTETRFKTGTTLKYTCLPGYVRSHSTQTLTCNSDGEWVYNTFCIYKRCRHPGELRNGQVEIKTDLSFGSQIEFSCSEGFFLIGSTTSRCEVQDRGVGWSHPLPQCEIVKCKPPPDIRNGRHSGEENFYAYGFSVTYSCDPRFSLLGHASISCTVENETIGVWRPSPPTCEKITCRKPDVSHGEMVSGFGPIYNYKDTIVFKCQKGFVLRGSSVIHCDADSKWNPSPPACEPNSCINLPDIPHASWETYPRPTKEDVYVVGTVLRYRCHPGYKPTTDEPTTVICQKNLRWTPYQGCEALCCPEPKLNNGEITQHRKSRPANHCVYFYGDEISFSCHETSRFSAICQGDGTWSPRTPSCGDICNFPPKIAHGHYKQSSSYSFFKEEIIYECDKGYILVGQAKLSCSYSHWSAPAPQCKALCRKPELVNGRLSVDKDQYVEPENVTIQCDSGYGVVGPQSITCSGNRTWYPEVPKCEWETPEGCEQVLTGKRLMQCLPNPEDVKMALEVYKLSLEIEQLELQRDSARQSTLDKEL
T1 sequence (looked up) 2: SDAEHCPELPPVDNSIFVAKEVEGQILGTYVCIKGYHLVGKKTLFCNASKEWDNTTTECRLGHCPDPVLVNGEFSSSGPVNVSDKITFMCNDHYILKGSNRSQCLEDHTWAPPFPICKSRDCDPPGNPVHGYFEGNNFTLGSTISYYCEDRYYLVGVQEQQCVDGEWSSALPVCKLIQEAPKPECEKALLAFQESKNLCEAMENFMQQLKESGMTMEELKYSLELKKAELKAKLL
The assay is described as follows: SPR (Biacore T100), MSPS immobilised on CM5, C4BP as analyte. The source says:
(§1) Using an amine coupling kit (manufactured by Biacore), human plasma-derived Protein S (manufactured by Calbiochem), and recombinant human Protein S prepared in Example 4, MSPS and KCPS were respectively immobilized on flow cells of a CM5 sensor chip (manufactured by Biacore). An immobilized amount of the ligand protein on the respective flow cells was set to the range of 1500 to 2000 RU. Then, an anti-human Protein S antibody C-17 (manufactured by Santa Cruz) (FIG. 7), or a human plasma-derived complement C4 binding protein (manufactured by BioMed) diluted to given concentrations (50000, 25000, 12500, 6250, 3125, and 1562 ng/mL) using HBS-EP+buffer (manufactured by Biacore), as an analyte, was allowed to run and bind to the ligand-immobilized flow cells at a temperature of 25° C., a flow rate of 5 μL/min, association time of 140 seconds, and dissociation time of 240 seconds. The anti-human Protein S antibody C-17 and the human plasma-derived complement C4 binding protein are known to bind to the sex hormone-binding globulin-like domain (SHBG domain) at the carboxyl terminal of Protein S. The chip was regenerated by a flow of an aqueous glycine solution (pH 1.5) (manufactured by Biacore) for 60 seconds. Dissociation constants calculated by analysis of the obtained data using Biacore T100 evaluation software ver 1.1 (manufactured by Biacore) are given in Table 2 below.

The target of assay [5] is T2, recombinant human RAGE-Fc fusion protein (manufactured by R&D Systems) (human, UniProt Q15109 24-344).
T2 construct: Bought fusion protein; also called recombinant soluble RAGE-human IgG1 Fc chimeric protein; not shown: Fc of human IgG1
T2 sequence (Q15109 24-344 limits assumed): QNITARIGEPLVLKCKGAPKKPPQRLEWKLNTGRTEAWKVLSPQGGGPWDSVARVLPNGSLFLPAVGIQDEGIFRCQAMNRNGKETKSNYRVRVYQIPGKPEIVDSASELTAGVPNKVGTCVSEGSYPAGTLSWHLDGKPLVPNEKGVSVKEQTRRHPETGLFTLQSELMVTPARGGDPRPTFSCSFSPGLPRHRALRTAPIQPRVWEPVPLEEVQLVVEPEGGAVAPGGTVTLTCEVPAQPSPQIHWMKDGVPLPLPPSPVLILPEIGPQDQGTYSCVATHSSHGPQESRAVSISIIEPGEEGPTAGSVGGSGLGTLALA
The assay is described as follows: SPR (Biacore T100), Protein S immobilised on CM5, RAGE-Fc as analyte.

Assay [6] concerns the target T1, human plasma-derived complement C4 …. The assay is described as follows: SPR (Biacore T100), Protein S immobilised on CM5, C4BP as analyte.
Excerpt: as §1

Assay [7] deals with B1. The assay is described as follows: SPR (Biacore T100), Protein S immobilised on C1 chip, CD14 as analyte. As for the experimental part:
Using an amine coupling kit, human plasma-derived Protein S, and recombinant human Protein S prepared in Example 3, MSPS were respectively immobilized at 700 to 800 RU on flow cells of a Series S C1 sensor chip (manufactured by Biacore). Then, the experiment was carried out in the same manner as in Example 5, using a recombinant human CD14 protein (manufactured by R&D systems) diluted to given concentrations (25000, 12500, 6250, 3125, and 1562 ng/mL) using HBS-EP+buffer (manufactured by Biacore), as an analyte.

Assay [8] deals with T3, human plasma-derived antithrombin III (manufactured by Calbiochem) (human, UniProt P01008 33-464, four asparagine-linked sugar chains without core alpha1,6-fucose).
T3 construct: mature; Bought plasma protein; also called human plasma antithrombin III
T3 sequence (P01008 33-464): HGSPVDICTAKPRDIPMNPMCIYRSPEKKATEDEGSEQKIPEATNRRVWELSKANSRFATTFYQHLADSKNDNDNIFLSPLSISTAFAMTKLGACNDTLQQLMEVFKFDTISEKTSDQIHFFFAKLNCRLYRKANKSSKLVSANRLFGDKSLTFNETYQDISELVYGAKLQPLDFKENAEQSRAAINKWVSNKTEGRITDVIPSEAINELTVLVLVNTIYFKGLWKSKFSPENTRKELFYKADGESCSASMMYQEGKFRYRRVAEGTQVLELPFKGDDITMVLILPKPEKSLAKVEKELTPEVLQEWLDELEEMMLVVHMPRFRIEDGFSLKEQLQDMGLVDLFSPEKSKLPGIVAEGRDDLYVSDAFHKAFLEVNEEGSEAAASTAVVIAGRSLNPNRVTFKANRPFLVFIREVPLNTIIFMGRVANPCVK
The assay is described as follows: SPR (Biacore T100), antithrombin III immobilised on CM5 chip, LCA as analyte. As for the experimental part: The abscissa represents time (seconds), and the ordinate represents a binding activity of LCA to a glycoprotein on a sensor chip of Biacore T100. From the top, each sensorgram represents a value obtained when LCA was allowed to run at concentrations of 50000, 25000, 12500, 6250, 3125 and 0 ng/mL. The top represents the binding between human plasma Protein S and LCA, and the bottom represents the binding between human plasma antithrombin III and LCA.
Next, in order to analyze the binding mode of fucose added to the sugar chain of the human plasma-derived Protein S, the binding between core α1,6-fucose-specific lectin, Lens culinaris agglutinin (LCA) lectin and Protein S was analyzed by surface plasmon resonance. Using an amine coupling kit (manufactured by Biacore), human plasma-derived Protein S (manufactured by Calbiochem) and human plasma-derived antithrombin III (manufactured by Calbiochem) were respectively immobilized on flow cells of a CM5 sensor chip (manufactured by Biacore). The human plasma-derived antithrombin III is a glycoprotein having four asparagine-linked sugar chains, but these sugar chains are known not to have core α1,6-fucose (WO2005/035563). An immobilized amount of the ligand protein on the respective flow cells was set to the range of 2000 to 3000 resonance units (hereinafter referred to as “RU”). […]

With “anti-human Protein S antibody C-17 (manufactured by Santa Cruz)”, the Kd in assay [1] amounted to 240 nM; in assay [2], 220 nM; in assay [3], 230 nM. Turning to B1, in assay [4], binding was put at a Kd of 92 nM. Besides, the “fold affinity for RAGE against human plasma Protein S” value in assay [5] was ~7 fold.

B2: human plasma-derived Protein S (manufactured by Calbiochem) (other)
chain: ANSLLEETKQGNLERECIEELCNKEEAREVFENDPETDYFYPKYLVCLRSFQTGLFTAARQSTNAYPDLRSCVNAIPDQCSPLPCNEDGYMSCKDGKASFTCTCKPGWQGEKCEFDINECKDPSNINGGCSQICDNTPGSYHCSCKNGFVMLSNKKDCKDVDECSLKPSICGTAVCKNIPGDFECECPEGYRYNLKSKSCEDIDECSENMCAQLCVNYPGGYTCYCDGKKGFKLAQDQKSCEVVSVCLPLNLDTKYELLYLAEQFAGVVLYLKFRLPEISRFSAEFDFRTYDSEGVILYAESIDHSAWLLIALRGGKIEVQLKNEHTSKITTGGDVINNGLWNMVSVEELEHSISIKIAKEAVMDINKPGPLFKPENGLLETKVYFAGFPRKVESELIKPINPRLDGCIRSWNLMKQGASGIKEIIQEKQNKHCLVTVEKGSYYPGSGIAQFHIDYNNVSSAEGWHVNVTLNIRPSTGTGVMLALVSGNNTVPFAVSLVDSTSEKSQDILLSVENTVIYRIQALSLCSDQQSHLEFRVNRNNLELSTPLKIETISHEDLQRQLAVLDKAMKAKVATYLGGLPDVPFSATPVNAFYNGCMEVNINGVQLDLDEAISKHNDIRAHSCPSVWKKTKNS
modifications: gamma-carboxylated glutamic acid (Gla) in the N-terminal Gla domain; complex type N-glycoside-linked sugar chains (Asn458, Asn468, Asn489), partly with core alpha1,6-fucose (Fuc 0.26 per Man 3.00)
notes: Bought protein purified from human plasma; also called native Protein S; Human plasma Protein S
B2 came in with a Kd in assay [6] of 101 nM.

B3: recombinant human CD14 protein (manufactured by R&D systems) (receptor, UniProt P08571 20-352, looked up)
chain: TTPEPCELDDEDFRCVCNFSEPQPDWSEAFQCVSAVEVEIHAGGLNLEPFLKRVDADADPRQYADTVKALRVRRLTVGAAQVPAQLLVGALRVLAYSRLKELTLEDLKITGTMPPLPLEATGLALSSLRLRNVSWATGRSWLAELQQWLKPGLKVLSIAQAHSPAFSCEQVRAFPALTSLDLSDNPGLGERGLMAALCPHKFPAIQNLALRNTGMETPTGVCAALAAAGVQPHSLDLSHNSLRATVNPSAPRCMWSSALNSLNLSFAGLEQVPKGLPAKLRVLDLSCNRLNRAPQPDELPEVDNLTLDGNPFLVPGTALPHEGSMNSGVVPAC
notes: Bought
In the case of B3, in assay [7], the binding result is given as “binds”.

B4: Lens culinaris agglutinin (LCA) lectin (manufactured by Vector Laboratories) (other)
chain 1: TETTSFSITKFSPDQKNLIFQGDGYTTKGKLTLTKAVKSTVGRALYSTPIHIWDRDTGNVANFVTSFTFVIDAPSSYNVADEFTFFIAPVDTKPQTGGGYLGVFNSKEYDKTSQTVAVEFDTFYNAAWDPSNKERHIGIDVNSIKSVNTKSWNLQNGERANVVIAFNAATNVLTVTLTYP
chain 2: VTSYTLNEVVPLKDVVPEWVRIGFSATTGAEFAAHEVHSWSFHSELGGTSSS
notes: A lectin; also called lentil lectin
Regarding B4, the binding result in assay [8] is listed as “no binding (tested: 50000 ng/mL)”.
